Reference: publication PMC3605045, “GH1-family 6-P-β-glucosidases from human microbiome lactic acid bacteria” (Acta Crystallographica Section D: Biological Crystallography, 2013)

Molecular target: the molecule itself
Assay: SEC; Superdex 200 16/60, 20 mM HEPES-NaOH pH 8.0, 250 mM NaCl, 2 mM DTT, proteins ~3 mg/ml, 1 ml/min, calibrated with ferritin, aldolase, conalbumin and ovalbumin; oligomeric state from the elution volume

B1: 6-P-β-glucosidase from Streptococcus mutans UA159 (SmBgl) (enzyme)
chain: SNAMSKLPENFLWGGAVAAHQLEGGWQEGGKGISVADVMTAGRHGVAREITAGVLEGKYYPNHEAIDFYHHYKEDVKLFAEMGFKCFRTSIAWTRIFPKGDEAEPNEAGLQFYDDLFDECLKYGIEPVVTLSHFELPYHLVTEYGGFTNRKVIDFFVHFAEVCFRRYKDKVKYWMTFNEINNQANYQEDFAPFTNSGIVYKEGDDREAIMYQAAHYELVASARAVKIGHAINPNLNIGCMVAMCPIYPATCNPKDILMAQKAMQKRYYFADVHVHGFYPEHIFKYWERKAIKVDFTERDKKDLFEGTVDYIGFSYYMSFVIDAHRENNPYYDYLETEDLVKNPYVKASDWDWQIDPQGLRYALNWFTDMYHLPLFIVENGFGAIDQVEADGMVHDDYRIDYLGAHIKEMIKAVDEDGVELMGYTPWGCIDLVSAGTGEMRKRYGFIYVDKDDEGKGTLKRSPKLSFNWYKEVIASNGDDI
notes: non-natural N-terminal extension left after TEV cleavage of the His6 tag (vector pMCSG7); 6-P-β-glucosidase Bgl of Streptococcus mutans UA159, 477 residues (Met1-Ile477), amplified from genomic DNA; The SAD structure (3pn8) was solved from selenomethionine-labelled protein; source: E. coli BL21 (DE3) Magic, purified (IMAC-I, SEC on Superdex 200, TEV cleavage of the His6 tag, IMAC-II); not shown: …
For B1, the “stoichiometry N” value was 2.
